Results reported in paper PMC2793518, “Fiber Mediated Receptor Masking in Non-Infected Bystander Cells Restricts Adenovirus Cell Killing Effect but Promotes Adenovirus Host Co-Existence” (PLoS ONE, 2009).

Target: T1, CAR on A549 cells (human (endogenous in A549), UniProt P78310 20-365)
T1 sequence: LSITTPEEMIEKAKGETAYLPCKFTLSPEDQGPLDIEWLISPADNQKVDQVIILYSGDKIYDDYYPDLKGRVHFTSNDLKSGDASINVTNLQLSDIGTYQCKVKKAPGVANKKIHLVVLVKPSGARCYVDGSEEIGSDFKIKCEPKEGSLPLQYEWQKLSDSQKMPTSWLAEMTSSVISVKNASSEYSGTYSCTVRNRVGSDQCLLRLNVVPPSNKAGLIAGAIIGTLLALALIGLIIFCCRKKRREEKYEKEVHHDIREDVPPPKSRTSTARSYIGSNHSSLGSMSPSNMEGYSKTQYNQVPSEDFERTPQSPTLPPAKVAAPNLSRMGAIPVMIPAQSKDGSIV
Test: cell-based or functional assay

B1: Ad5 fiber (free trimeric fiber molecules released from Ad5-CRAD or WT Ad5 infected cells) (natural protein)
chain: MKRARPSEDTFNPVYPYDTETGPPTVPFLTPPFVSPNGFQESPPGVLSLRLSEPLVTSNGMLALKMGNGLSLDEAGNLTSQNVTTVSPPLKKTKSNINLEISAPLTVTSEALTVAAAAPLMVAGNTLTMQSQAPLTVHDSKLSIATQGPLTVSEGKLALQTSGPLTTTDSSTLTITASPPLTTATGSLGIDLKEPIYTQNGKLGLKYGAPLHVTDDLNTLTVATGPGVTINNTSLQTKVTGALGFDSQGNMQLNVAGGLRIDSQNRRLILDVSYPFDAQNQLNLRLGQGPLFINSAHNLDINYNKGLYLFTASNNSKKLEVNLSTAKGLMFDATAIAINAGDGLEFGSPNAPNTNPLKTKIGHGLEFDSNKAMVPKLGTGLSFDSTGAITVGNKNNDKLTLWTTPAPSPNCRLNAEKDAKLTLVLTKCGSQILATVSVLAVKGSLAPISGTVQSAHLIIRFDENGVLLNNSFLDPEYWNFRNGDLTEGTAYTNAVGFMPNLSAYPKSHGKTAKSNIVSQVYLNGDKTKPVTLTITLNGTQETGDTTPSAYSMSFSWDWSGHNYINEIFATSSYTFSYIAQE
For B1, the “percent GFP+ cells 24 hr after super-infection with Ad5-PGK-GFP (MOI 10) of A549 cultures infected 6 days before with Ad5-CRAD (MOI 1.0), relative to cultures without prior Ad5-CRAD infection” value was 60 % of control.
